Reference: the DeepSol protein solubility set

Experiment: soluble on expression in E. coli; label from the status in PepcDB or PDB records

Sequence	soluble on expression in E. coli
MGSDKIHHHHHHMQPEFNRPEFLEGNSAEEIHERMMNNLPDDIDDMPGGFPYDMTMPAALEKDEIINFHIVRALMIAFPEYAWDEWLDLHGRQVHLTRHEAEPAFGYVKITAAEGTEILSGTVFCTAATETGPSIEYATTEDVVVGGEGSVLIPVSAVEAGTGSNVAANTVVLMMVPDKNVTEINNPEPIRGGTERETDDDFYDRIAAEYDNSMTYLGNDTDYKRWAKQAGAGDAIVISTWNGPGTVKLVLVDGNGKPANAKLVQDVYNYIVSPNDRSARLLPTGTAELTCAAATTVAVNYVIAGLSYDETTGIEQIKADFTEAVRAVYAQAKTEGVLRYNDVRPLISAIAGVEDFETFTMNGKMQNITLKSEEYPDTGTLNFS	not soluble
MGSDKIHHHHHHMQQLTKPKKIAIIGAGFRGITAAKIFQDAGIEFVILDKNDATGGVWRTFANQSSYVQIPEPEYRFDMDYPNGLPSEFTPRDEILAHAERFINVHGIGKHIIFKSEVFSIEDISDSKYRVYYKHDNANKSLEVDGIYYAGGRLHKRRTVHFPGEKNFQGLIRYGISDDMPISEYRGKKVAIIGCGAFAMENARTALLNGATHVTIIAKTINIVLPRMVMFWLNSMRLAPVAPLLKMSWKMYDWAGTNFMKENLDGFSINQRTVPIISDFIFLAHKVGKAEFKKDSIDFIDSNSVVTSDGTKIEADIILKCVGFEGQMDVFKQVYPPFEAVNWIWVNKKTNFVLDQDPEFGMTTKATKLMTSGSTLLLTKIAARVFAMSLINPSKFEQIIPVLPTSQNAGYNISYHMGSLSKLLVANKDIKKFILRTSAKKSKSMIEKGGNGKYLEFCKREWKQQCEALGVEEVEYPFVFPWWILLWENWQQLVNRFFLAAFPEQNIVRDIQPEDVEWSFISAES	not soluble
MGSDKIHHHHHHMQRIMVIGGPGSGKSTLGRKLGARLGLPVVHMDPIYWLGDWVERDKAEAMRMAKEVADGSQWVFEGNHFASMAYRAERADLIVFLDMPRVLRMWRILWRSLRYYGRTRPDMGPNCPERFNRAFLKFCWTYDREGRLRALGFVDDWRDRRRVRILTSRRQVAAFLVEIDRQ	not soluble
MGSDKIHHHHHHMQSIMPEADYSFLSMDPTMNANTGNKDSLATPSHTPQLQAFCDVVESRRSVRRFTDAPIPDDVLADCLRLAMLAPNSSNLQPWEFYVIDDADKRKRAVKNCMNQNAAKTSARLIAVVARTDVWHDHAKKILREYPDMPVPKKVKDYYNKVVALDFLRGPANVVSVAKWSAIQVVRRIKGPIKSPYYTFEDTKNWATNNTALAAGNLMLALRAHGFDSCPMGGFDEPAMKRLLKLSNHHHIVMMIGAGERADNGVYNTQFRFEQDQFVHYV	not soluble
MGSDKIHHHHHHMQVRRFGRTNWNVSEIGYGMWGASGWKGSDDSQSEQSLDLAVSKGVNFFDTAWGYGEGHSEQLLGKLVKRHQSKKIYVATKIPPMNFKWPSKKSYTIGECFPVSHIKEYTETSLKNLGVEKIDLMQFHVWEDAWATDESWQRAVEDLQKEGKVDAFGISVNRWEPENCLETLKTGLIDSVQVIYNIFDQAPEDALLPLCKKLDIAVIARVPFDEGTLTGTITKDTTFEEGDWRASYFVPENLISSAEHADRLRPILPSGMTMAEMALRFILMNDDIATTIPGMRKERNVLANTGVSDGKKLSLDLYNELKKHRWDREPTSWSQ	not soluble
MGSDKIHHHHHHMQWETVIGLEIHAQLSTRSKIFSGASVAYGAEPNSQACAVDIALPGVLPVLNRQAIEYAIRFGLAIDATINSPSVFARKNYFYPDLPKGYQISQLEHPIVEGGHVAIQTGDQEKTIRLTRAHLEEDAGKSTHEEFHGMTGIDLNRAGTGLLEIVSEPDMRSSAEAVAYAKVLHSLVRWIGICDGNMQEGSFRCDANVSVRPAGSEALGTRCEIKNLNSFRFLERAIDYEVARQIDILESGGSITQETRLYDADRDETRTMRSKEDAHDYRYFPDPDLLPVIIPQEWIDQIREKLPELPKDKRNRYIQDFGLQTYDANILTAARELADYFEQMVSVLPGQSKLCANWIMGEVSARLNKEGLEIARSPISPEQLAGLLLRITDGTISGKIAKDVFDSMWQSNGDSADTIIDAKNLRQISDDSEIEKWVDDVLAANPQQVADYRAGKEKAFNSLVGQVMKTSKGKANPAQVNSVLKKRLTE	not soluble
MGSDKIHHHHHHMQWRRVLRFVNMEVVYVLGVKGGIGKTTFSLYFANQLSLTGKKVLYIDHDYFSFGSLILGHNDLGLLEEIENNLPIFSRSLKNINNLYILKLFSNPLDANKDYSLLSNSIPQVVNSIAKMGLDYVILDSSVGILPDNDIVIGLLEELDVEKKGVFLSDMLSVNSTIKYAKLWENAIKYKILVINMVPPIPEDLSEAMKIANKVYDDNNSKLFNTVVVVPFDEKMYNYKPLGNEYENERLNTILSCIVNRCNTLIIN	not soluble
MGSDKIHHHHHHMQYREFGRTGVKTSLLGFGAMRLPVIGEDHSNIDEEKAIEMIRYAIDHGVNYVDTAYPYHGGNSEKVVGKALKDGYREKVFLATKSPVWQVEKHEDFERILDEQLEKLQTDHVDMYLMHALNKERWEKIKNLRFSDFFEKAKAKGKIRFAGFSFHDSYPVFKEIVDGYDWDFCQIQLNYMDVNYQAGLRGLKYAGSKGLAVVIMEPLKGGKLARLPEKVMEILRKYNKNWSPVELSFRWIGHHPEVSTILSGMSTLEQVKQNIDIMSKITPGNLTDEDMKMIEEIRKTLESFAVINCTQCGYCMPCPNGVDIPGNFRLYNETVMFEDWEGGRRTYKWLESQKSAASFCVECGECLSKCPQKLDIPNLLKKVHRELAEVK	not soluble
MGSDKIHHHHHHMRAALAQGCDPMVLTGEVWPKWRIWTRDADRFLDDAPLNKLTAPAGIPLSSFRAATLKSVAERVSKGPLPDRAVWPWILALGARNTKRRSGLQYCPDCLRDDRIPYYRLQWRLAWHVGCEHHHCSLLDRCPHCRAPLEPHRLHAEDGHMAVCATCRGDLRDVGAITPCSDDAMAFQDAGDEAIRHGSGQFMAHPTETDAWFAGASFLSALLRRANRSDAEALHVFLERMGVAVPELPLNPGTGVELLGTAERHLLLGALWKLMRTDLADVSKYLQESGITRQGFVSKGERMPDLFAETFAQLPDNARGPRKQAVRDPGQPRPRHEVMRMWRRLQRKLEMSQR	not soluble
MGSDKIHHHHHHMRDFSSDHSALALNTASLGHNLEGHGAGWTSEQVIDACAERGFGSIVFWRREIGERAVKIGERVRSAGLTVAGLCRTPFLVGTQATDVESVMDDFKRSIDMAAALGAPVLTIVVGGVHPGTKGVAESLKIVADRVAEAAPCAQASGVKLALEPLNPVYAGNRSCLTTLRDAVDLCDRIAAPNVGIAVDVYHVWWDTELERQLKRAGAERIYGYHLCDWLAETNDVLLDRGMMGDGVADLKAIRSFVEGAGYRGPCEVEIFSANDWWKRDPGEVLDVMVERFRNCC	not soluble
MGSDKIHHHHHHMRDNMSRLEDLEAFIHIAESGSLTRAATRLNRSLQAVSRSLTSLEVDVGLQLVHRTTRHSALSEAGQAFYRRVKPAVLEIREAQLEAAGRRTGPSGILRVGAPMLFGPDFLVPIVAEYIESYPQAEVDLSLTDAFVDLASKGIDVVVRIADLPDSNLQSKRLGALRRVVFGAPSYFARNGRPEHPAELRQHACIVRTIGNRPGQWAFQIDGKRRMVGVRGSFRSNAMAAIYSAVRSGLGLGYSPLWQIRHLVDAGQVEIVLQEFEPKPVPIHALWQESTRPPAKVRAFVDLLAMRLRLDDL	not soluble
MGSDKIHHHHHHMRFFIAIYEENNITAAATRCYVSQPSLSAGLKQLEEELGGPLFERSKKGVKALDSAHYLYPLAVKLVEEASKLPALFMAKASRQKLRLAVMPDLSQRRLAGLLTQINQAISHLDLELVDYQSTADCRLTLDSLRHEDEVFFPLWEEDYVLCVPTEHPLAQANRIRPEELSQYDFIECPPCEAHQQTIGLLACSNLSLNLVAKADSKSLVMSLVLAGFGVSFLPDGLIEDEPRLKQIKFDGPRMFRRIGLCYPSHQAVAPTLAKLLRYLTQATA	not soluble
MGSDKIHHHHHHMRFGLDLGTTRTIAAAVDRGNYPIVTVEDSLGDTHDFIPSVVALKADRIVAGWDAIEVGQDHPSFVRSFKRLLSEPNVTEATPVYLGDHVHPLGAVLEAFAENVVTALRAFQTQLGDTSPIEVVIGVPANSHSAQRLLTMSAFSATGITVVGLVNEPSAAAFEYTHRHARTLNSKRQAIVVYDLGGGTFDSSLIRIDGTHHEVVSSIGISRLGGDDFDEILLQCALKAAGRQHDAFGKRAKNTLLDESRNAKEALVPQSRRLVLEIGDDDITVPVNKFYEAATPLVEKSLSIMEPLIGVDDLKDSDIAGIYLVGGGSSLPLVSRLLRERFGRRVHRSPFPSGSTAVGLAIAADPSSGFHLRDRVARGIGVFREHDSGRAVSFDPLIAPDTDSATVAKRCYKAVHNIGWFRFVEYSTVSEDGSPGDISLLSEIKIPFDSSITDVDATEISRFDGPEVEETITVNDNGVASISIKILGGVTVEHTI	not soluble
MGSDKIHHHHHHMRFGYFDDVNREYVITTPQTPYPWINYLGTEDFFSIISHMAGGYCFYKDARLRRITRFRYNNVPTDAGGRYFYIREENGDFWTPTWMPVRKDLSFFEARHGLGYTKITGERNGLRATITYFVPRHFTGEVHYLVLENKAEKPRKIKLFSFIEFCLWNALDDMTNFQRNYSTGEVEIEGSVIYHKTEYRERRNHYAFYSVNQPIDGFDTDRESFIGLYSGFEAPQAVVEGKPRNSVASGWAPIASHYLEIELAPSEKKELIFILGYVENPEEEKWEKPGVINKKRAKEMIEKFKTGEDVEHALKELREYWDDLLGRIQVETHDEKLNRMVNIWNQYQCMVTFNISRSASYFESGISRGIGFRDSNQDILGFVHMIPEKARQRILDLASIQFEDGSTYHQFQPLTKKGNNEIGGGFNDDPLWLILSTSAYIKETGDWSILGEEVPFDNDPNKKASLFEHLKRSFYFTVNNLGPHGLPLIGRADWNDCLNLNCFSKNPDESFQTTVNALDGRVAESVFIAGLFVLAGKEFVEICKRRGLEEEAREAEKHVNKMIETTLKYGWDGEWFLRAYDAFGRKVGSKECEEGKIFIEPQGMCVMAGIGVDNGYAEKALDSVKKYLDTPYGLVLQQPAYSRYYIELGEISSYPPGYKENAGIFCHNNPWVAIAETVIGRGDRAFEIYRKITPAYLEDISEIHRTEPYVYAQMVAGKDAPRHGEAKNSWLTGTAAWSFVAITQHILGIRPTYDSLVVDPCIPKEWEGFRITRKFRGSIYDITVKNPSHVSKGVKEIIVDGKKIEGQVLPVFEDGKVHRVEVVMG	not soluble
MGSDKIHHHHHHMRFYTKTHKYYCGIDLHARKKYVCILDSEGTVLVHREINCNPESFLRLVAPYREDLVVGVECMFAWYWLADLCRNEKIEFVLGHALYMKAVHGGKAKSDKIDAHKIAVLLRGGMFPLAYVYPPEMRATRDLLRRRNFFVRKRAELMAHIQNTVTQYNLAPLGIDLGVEENRHEVAQLFHDPEVRKIIEIDVAMIDAFDDVINVLEPDIEKTARQHNLHALKLLRSINGVGKVLGLVMLYEIHDINRFPTVQDFSSYCRLVKCAHESAGKKKGVGGSKIGNVHLKWAFSEAAVFFVRHNPQAKILMEKLVKIHGKGKAISILAHKLARAIFYMLKNNVPFDREKFLATA	not soluble
MGSDKIHHHHHHMRHELDNPHAHATNNPCIRCLRHADRYARAVVSMLEVFASDKAEAKHNLFLKEGLCDIDKTLRSNDKRDTLRERPRNQTSSAMTLSPEKRARVMQGEILIDLNWLPDGVIGAKGSVFVEAEPPVVWRMLTDYDHLHETMPKVISSRLLETNNQTRIIAQSGKSGIFIFEKTVNFTLKVEEVFPEHLWFSQIGGDFQVYEGEWQLEAVEGKNGHATLLSYQAEIKPDFFAPQFVVSFVQSQDLPTILRAIRSYCEARAKG	not soluble
MGSDKIHHHHHHMRIAYLSSAYLAPVEYYTKLLEYDKIYVEQHDHYIKQTYRNRCTIAGPDGELALSIPTVKPDTLKCPMKDIRISDHGNWRHLHWNAIESAYNSTPYFEYYKDDFRPFYEKKYEFLADFNEELCQLVCKLIDIQPCIERTSEYKTEFTTEETDFREIIHPKKDFQIADPEFVPHPYYQVFDSKLGFLPNLSIIDLLFNMGPESLLVLTSK	not soluble
